Experimental data as given in US20260042834A1 (HBM ALPHA THERAPEUTICS, published 2026).
Changes are numbered by the printed parent chain. Each block holds one binder with its values, some of them ahead of it.

How the values were obtained:
[1] = molecular target: T1, biotinylated CRH (human and mouse, not fully specified; biotinylated, position not stated); test: Octet BLI, biotinylated CRH on SA sensor
T1 construct: also called Biotin-CRH; biotin-labeled CRH
T1 peptide: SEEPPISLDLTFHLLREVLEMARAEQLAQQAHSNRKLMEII
Method: Octet® Red 96e was used for affinity measurement. Octet® running buffer was prepared by diluting kinetics buffer 10× (Fortebio, Cat #18-1105) in PBS according to the manufacturer's instructions. Two columns of SA sensors (Fortebio, Cat #18-5019) were hydrated in running buffer for 10 mins, one for ligand capturing and the other for reference. Antibodies were 2-fold diluted and added into a 96-well plate. […] After a 60-second baseline step, sensors were dipped into analyte and buffer wells successively, with the association and dissociation time of 180 seconds and 800 seconds, respectively. […] Signals of reference wells and reference sensors were subtracted by selecting “Double reference” before data fitting.

[2] = molecular target: T2, corticotropin-releasing hormone (CRH) peptide (human and mouse (same sequence), not fully specified); test: cell-based or functional assay
T2 peptide: T1 peptide

B2: PR006669 (antibody, human IgG1, kappa, V domains shown)
VH: EVQLVESGGGLVQPGGSLRLSCAASGFTFSDNWMSWVRQAPGKGLEWVANIKQDGSENYYVDSVKGRFTISRDNAKNSLYLQMNSLRAEDTAVYYCSRGLALWGWGQGTLVTVSS
VL: DIVMTHSPLSLPVTPGDPASISCRSSQSLLHSTGYNYLDWYLQKPGQSPQLLIYLGSNRASGVPDRFSGSGSGTDFTLKFIRVEAEDVGVYYCMQALQTPYTFGQGTKLEIKR
notes: Series 2; human IgG1 wildtype Fc; also called Hybridoma Clone 52g7
Kd [1]: 0.12 nM

B3: PR005658 (antibody, human IgG1, kappa, V domains shown)
VH: EVQLVESGGVLVQPGGSLRLSCAASGFTFSSYWMTWVRQAPGKGLEWVANIKQDGSEKYYVDSVKGRFTISRDNAKNSLFLQMNSLRAEDTAVYYCARTLIFDYWGQGTLVTVSS
VL: DIVMTQSPLSLPVTPGEPASISCRSSQSLLHSTGYQSLEWYLQKPGQSPQLLIYLGSNRASGVPDRFSGSGSGTDFTLKISRVEAEDVGIYYCMQTLQTPITFGQGTRLEIKR
notes: PTM-removal variant of PR004290
Kd [1]: 0.179 nM | koff [1]: 9.11e-05 s⁻¹ | kon [1]: 509000 M⁻¹ s⁻¹

B6: PR005662 (antibody, human IgG1, kappa, V domains shown)
VH: B3 VH with G55A
VL: B3 VL
notes: as for B3
Kd [1]: 0.209 nM | koff [1]: 8.27e-05 s⁻¹ | kon [1]: 396000 M⁻¹ s⁻¹

B8: PR006145 (antibody, human IgG1, kappa, V domains shown)
VH: B3 VH with D54E
VL: B3 VL with Q36S
notes: as for B3
Kd [1]: 0.305 nM | koff [1]: 6.75e-05 s⁻¹ | kon [1]: 222000 M⁻¹ s⁻¹

B9: PR006142 (antibody, human IgG1, kappa, V domains shown)
VH: B3 VH with D54E
VL: B3 VL with Q36D
notes: as for B3
Kd [1]: 0.123 nM | koff [1]: 4.08e-05 s⁻¹ | kon [1]: 333000 M⁻¹ s⁻¹

B11: PR006146 (antibody, human IgG1, kappa, V domains shown)
VH: B3 VH with G55A
VL: B3 VL with Q36D
notes: as for B3
Kd [1]: 0.109 nM | koff [1]: 4.84e-05 s⁻¹ | kon [1]: 445000 M⁻¹ s⁻¹

B12: PR006153 (antibody, human IgG1, kappa, V domains shown)
VH: B3 VH with G55S
VL: B3 VL with Q36S
notes: as for B3
Kd [1]: 0.171 nM | koff [1]: 8.36e-05 s⁻¹ | kon [1]: 487000 M⁻¹ s⁻¹

B13: PR006147 (antibody, human IgG1, kappa, V domains shown)
VH: B3 VH with G55A
VL: B3 VL with Q36H
notes: as for B3
Kd [1]: 0.142 nM | koff [1]: 6.96e-05 s⁻¹ | kon [1]: 489000 M⁻¹ s⁻¹

B15: PR006151 (antibody, human IgG1, kappa, V domains shown)
VH: B3 VH with G55S
VL: B3 VL with Q36H
notes: as for B3
Kd [1]: 0.16 nM | koff [1]: 8e-05 s⁻¹ | kon [1]: 500000 M⁻¹ s⁻¹

B17: PR006149 (antibody, human IgG1, kappa, V domains shown)
VH: B3 VH with G55A
VL: B3 VL with Q36S
notes: as for B3
Kd [1]: 0.16 nM | koff [1]: 7.78e-05 s⁻¹ | kon [1]: 487000 M⁻¹ s⁻¹

B19: PR302341-43 (antibody, human IgG1, kappa, V domains shown)
VH: QVQLVQSGAEVKKPGASVKVSCKASGYTFTDYFMKWVRQAPGQGLEWMGVINPNNADIFYNQKFKGRVTMTVDKSTSTAYMELSSLRSEDTAVYYCARGTDRALFAYWGQGTLVTVSS
VL: DVVMTQTPLSSPVTLGQPASISCRSGQSIVHSDGNTYLEWYQQRPGQPPRLLIYKVSNRFSGVPDRFSGSGAGTDFTLKISRVEAEDLGVYYCFQGSHIPWTFGGGTKVEIKR
hCRHR1 Luciferase Reporter Assay IC50 [2]: 0.512 nM | mCrhr1 Luciferase Reporter Assay IC50 [2]: 1.37 nM

B20: PR302341-44 (antibody, human IgG1, kappa, V domains shown)
VH: B19 VH with N55S, A56G
VL: B19 VL
hCRHR1 Luciferase Reporter Assay IC50 [2]: 0.646 nM

B21: PR302341-45 (antibody, human IgG1, kappa, V domains shown)
VH: B19 VH with N55Q, A56G
VL: B19 VL
hCRHR1 Luciferase Reporter Assay IC50 [2]: 0.35 nM | mCrhr1 Luciferase Reporter Assay IC50 [2]: 1.83 nM

B22: PR302341-48 (antibody, human IgG1, kappa, V domains shown)
VH: B19 VH with N55Q, A56G
VL: B19 VL with G34A
hCRHR1 Luciferase Reporter Assay IC50 [2]: 0.507 nM | mCrhr1 Luciferase Reporter Assay IC50 [2]: 1.46 nM

B23: PR302341-47 (antibody, human IgG1, kappa, V domains shown)
VH: B19 VH with N55S, A56G
VL: B19 VL with G34A
hCRHR1 Luciferase Reporter Assay IC50 [2]: 1.04 nM | mCrhr1 Luciferase Reporter Assay IC50 [2]: 1.6 nM

B24: PR302341-46 (antibody, human IgG1, kappa, V domains shown)
VH: B19 VH
VL: B19 VL with G34A
hCRHR1 Luciferase Reporter Assay IC50 [2]: 1.27 nM | mCrhr1 Luciferase Reporter Assay IC50 [2]: 1.52 nM

B25: PR302334-10 (antibody, human IgG1, kappa, V domains shown)
VH: EVQLVESGGGLVQPGGSLRLSCAASGFTFSTYAMSWVRQAPGKGLEWVASIRSGGTTYYPDSVKGRFTISRDNSKNTLYLQMNSLRAEDTAVYYCTRGIDWGQGTTVTVSS
VL: DIVMTQSPDSLAVSLGERATINCKASQSVNNDVAWYQQKPGQPPRLLIYYASNRYTGVPDRFSGSGSGTDFTLTISSLQAEDLAVYFCQQDYSSWTFGGGTKVEIKR
notes: Humanized variant of PR302334
Kd [1]: < 0.001 nM | koff [1]: < 1e-07 s⁻¹ | kon [1]: 6840 M⁻¹ s⁻¹

B26: PR302334-27 (antibody, human IgG1, kappa, V domains shown)
VH: B25 VH with T77S
VL: DIQMTQSSLSASVSLGDRVTITCKASQSVNNDVAWYQQKPGKAPRLLIYYASNRYTGVPSRFSGSGSGTDFTFTISSLQPEDLATYFCQQDYSSWTFGGGTKVEIKR
notes: Humanized variant of PR302334
Kd [1]: < 0.001 nM | koff [1]: < 1e-07 s⁻¹ | kon [1]: 302000 M⁻¹ s⁻¹

Results, then the binder that gave them:

Kd [1]: 0.0627 nM | koff [1]: 4.55e-05 s⁻¹ | kon [1]: 726000 M⁻¹ s⁻¹
B1: PR005656 (antibody, human IgG1, kappa, V domains shown)
VH: B3 VH with D54E
VL: B3 VL with Q36N
notes: as for B3

Kd [1]: 0.0623 nM | koff [1]: 2.85e-05 s⁻¹ | kon [1]: 457000 M⁻¹ s⁻¹
B4: PR006143 (antibody, human IgG1, kappa, V domains shown)
VH: B3 VH with D54E
VL: B3 VL with Q36H
notes: as for B3

Kd [1]: 0.102 nM | koff [1]: 5.66e-05 s⁻¹ | kon [1]: 555000 M⁻¹ s⁻¹
B5: PR006150 (antibody, human IgG1, kappa, V domains shown)
VH: B3 VH with G55S
VL: B3 VL with Q36D
notes: as for B3

Kd [1]: 0.0913 nM
B7: PR005657 (antibody, human IgG1, kappa, V domains shown)
VH: B3 VH with G55A
VL: B3 VL with Q36N
notes: as for B3

Kd [1]: 0.0895 nM | koff [1]: 4.47e-05 s⁻¹ | kon [1]: 499000 M⁻¹ s⁻¹
B10: PR006144 (antibody, human IgG1, kappa, V domains shown)
VH: B3 VH with D54E
VL: B3 VL with Q36N, S37P
notes: as for B3

Kd [1]: 0.0751 nM | koff [1]: 8.69e-05 s⁻¹ | kon [1]: 1.16e+06 M⁻¹ s⁻¹
B14: PR006746 (antibody, human IgG1, kappa, V domains shown)
VH: B2 VH with G55S
VL: B2 VL
notes: PTM-removal variant of PR006669

Kd [1]: 0.106 nM
B16: PR006148 (antibody, human IgG1, kappa, V domains shown)
VH: B3 VH with G55A
VL: B3 VL with Q36N, S37P
notes: as for B3

Kd [1]: 0.00124 nM
B18: PR301777 (antibody, human IgG1, kappa, V domains shown)
VH: EMKLEESGGGLVQPGGSMKLSCVASGFTFSNYWMNWVRQSPEKGLEWVAEIRLKSNNYATHYAESVKGRFTISRDDSKSGVYLQMNNLGAEDTGIYYCTVGTLVYWGQGTLVTVSA
VL: DIVLTQSPASLAVSLGQRATISCRASQSVSTSTYNYMHWFQQKPGQPPKLLIKFASNLESGVPARFSGSGSGTDFTLNIHPVEEEDTATFYCQHSWEIPYTFGGGTKLEIKR
notes: Series 5; mouse variable domains with human IgG1 wildtype Fc

Kd [1]: < 0.001 nM | koff [1]: < 1e-07 s⁻¹ | kon [1]: 684000 M⁻¹ s⁻¹
B27: PR302334-11 (antibody, human IgG1, kappa, V domains shown)
VH: B25 VH
VL: B26 VL with L83I, F87Y
notes: Humanized variant of PR302334

Kd [1]: < 0.001 nM | koff [1]: < 1e-07 s⁻¹ | kon [1]: 606000 M⁻¹ s⁻¹
B28: PR302334-24 (antibody, human IgG1, kappa, V domains shown)
VH: B25 VH with Q13K, S74A, T77S
VL: B25 VL
notes: Humanized variant of PR302334

Kd [1]: < 0.001 nM | koff [1]: < 1e-07 s⁻¹ | kon [1]: 14700 M⁻¹ s⁻¹
B29: PR302334-8 (antibody, human IgG1, kappa, V domains shown)
VH: B25 VH
VL: EIVMTQSPATLSVSPGERATLSCKASQSVNNDVAWYQQKPGQAPRLLIYYASNRYTGIPARFSGSGSGTEFTLTISSLQSEDLAVYFCQQDYSSWTFGGGTKVEIKR
notes: Humanized variant of PR302334

Kd [1]: < 0.001 nM | koff [1]: < 1e-07 s⁻¹ | kon [1]: 285000 M⁻¹ s⁻¹
B30: PR302334-25 (antibody, human IgG1, kappa, V domains shown)
VH: B25 VH with Q13K, S74A, T77S
VL: B26 VL
notes: Humanized variant of PR302334

Kd [1]: 0.0153 nM | koff [1]: 4.03e-06 s⁻¹ | kon [1]: 263000 M⁻¹ s⁻¹
B31: PR302309 (antibody, human IgG1, kappa, V domains shown)
VH: QIQLVQSGPELKKPGETVKISCKASGYTFTNYGMNWVKQAPGKVLKWMGWINTYTGEPIYTDDFKGRFAFSLETSASTAYLQINNLKNEDTATYFCSRSTMITTGGVFAYWGQGTLVTVSA
VL: DVLMAQTPLSLPVSLGDQASISCRSSQTIVHSDGNTYLEWYLQKPGQSPKLLIYKVSNRFSGVPDRFSGSGSGTDFTLKISRVEAEDLGVYYCFQGSHVPWTFGGGTKLEIKR
notes: Series 7; mouse variable domains with human IgG1 wildtype Fc
